Substitutions are numbered along the chain they refer to. In names and notes the source's numbering stands. Several values for one entry are separate records, joined by “and”; a condition that tells them apart may be missing. Equal entries are not always repeated. Where two headings read alike, the source gives them in different places.

The record followed here is patent US8722622B2, “FGF21 conjugates and anti-diabetic uses thereof” (COVX Technologies Ireland, Limited, priority 2010, dated 2014).

Series [1] deals with Glut1 mRNA expression in differentiated 3T3-L1 adipocytes. Description: Glut1 Taqman assay. It counts as cell-based. To be noted: 6 hrs. The method, then: Differentiated 3T3-L1 adipocytes were used to measure the Glut1 mRNA expression by qPCR method. Overnight serum starved day 10-14 differentiated 3T3-L1 adipocytes were treated with compounds for 6 hrs. Total RNA was extracted from these cells, and Glut1 and GAPDH mRNA expression was measured using a Quantitect Probe RT-PCR kit and running a quantitative real time PCR reaction in a Taqman machine (Applied Biosystems®). The bioactivity of the compounds was determined by a fold change in Glut1 mRNA levels normalized by the GAPDH mRNA levels from each sample. EC50 values as measurements of the potency of the compounds were obtained from the dose response curves in the assay.
3T3-L1 adipocytes were seeded at day 8 in 24-well tissue culture plates (Falcon®, Cat#353047), and incubated in DMEM complete medium (10% FBS, 2 mM L-glutamine, 1% P/S) at 37° C., 5% CO2. […] The medium was aspirated, and then RNA extracted from the cells using the RNeasy mini Kit according to the manufacturer's instructions. RNA was measured at A260 nm using the Spectramax® Plus spectrophotometer.
(In general: Real-time PCR tracks product formation cycle by cycle.)

On the set-up of series [2]: species or system Swiss-Webster mice. Conditions: mouse, in vivo. The method, then:
The PK of FGF21 antibody conjugates were examined in mice after IV or SC administration. […] Antibody conjugates concentrations in serum were determined using an ELISA which captured the FGF21 portion of the antibody conjugates through a monoclonal anti-hFGF21 antibody bound to a 96-well plate. FGF21 antibody conjugates bound to the plate were detected through an anti-hFc monoclonal antibody, and concentrations were determined using a standard curve of the PK dosing solution diluted into serum-containing assay buffer. SC bioavailability was calculated as the ratio of the area-under the curve (AUC) of the SC serum concentration profile divided by the AUC of the IV serum concentration profile.

Series [3] in a line: Stability of linkers L1-L4 conjugated to FGF21 (LC-MS). It counts as physicochemical. To be noted: +4° C. As for the experimental part:
The following experiment was performed to investigate the chemical stability over 2 weeks of the four linkers upon conjugation to FGF21: each linker was conjugated to FGF21, placed at +4° C. storage conditions, and aliquots were removed and quenched by freezing at specific time points, and linker stability was monitored by LCMS analysis.
The four linkers were dissolved in DMSO from lyophilized stock material. […] L1 was reacted with protein for 30 mins; L2, L3 and L4 were reacted for 2 hrs. The conjugation reaction was quenched by removal of excess linkers through size-exclusion resin. Conjugated FGF21ΔH-A129C protein was placed at +4° C. for stability storage. […] Analysis of linker stability was performed by LC-MS analysis to determine the relative amount of unconjugated protein, protein+linker conjugation, and single and double hydrolysis events of the conjugated protein+linker.
Linker hydrolysis is the critical analytical variable in this experiment. Hydrolysis was monitored by observing the subsequent addition of H2O to the FGF21-linker complex. A single addition of H2O, +(1) H2O, likely indicates the hydrolysis of the active AZD group that is present on all 4 linkers. The addition of a second H2O molecule, +(2) H2O, is a strong indicator of hydrolysis (eg—chemical instability) in the linker. L1 is particularly susceptible because of the presence of a maleimide functional group.

Series [4] concerns Differentiated 3T3-L1 adipocytes. The experiment in a line: Glucose uptake assay. It counts as cell-based. Conditions: unconjugated protein; n in brackets. The method, then: Differentiated 3T3-L1 adipocytes were treated with compounds in the absence of serum for 24 hrs. Cells were then incubated with ^14C-2-deoxyglucose for 1 hr and glucose uptake into the cells was quantitated in Wallac 1450 MicroBeta (Trilux) instrument. Glucose uptake was expressed in counts per min (CPM). EC50 values as measurements of the potency of the compounds were obtained from the dose response curves in the assay.

Where [5] appears, read: differentiated 3T3-L1 adipocytes, read-out: EC50 in Glut1 Taqman assay.
The mark [6] stands for this setting: 0 hrs, % of total measured protein.

B1: FGF21ΔH-Knull-H1K: FGF21 lysine-null mutant with H1K, SEQ ID NO:23 (protein, listed as Homo sapiens)
chain: KPIPDSSPLLQFGGQVRQRYLYTDDAQQTEAHLEIREDGTVGGAADQSPESLLQLRALRPGVIQILGVRTSRFLCQRPDGALYGSLHFDPEACSFRELLLEDGYNVYQSEAHGLPLHLPGNRSPHRDPAPRGPARFLPLPGLPPALPEPPGILAPQPPDVGSSDPLSMVGPSQGRSPSYAS
The term EC50 denotes the midpoint of the concentration-response curve. On to B1, for which the EC50 in series [1] (setting [5]) is 6.4 nM and 4.3 nM. In series [2] (iv), this molecule returned an IV half-life of 16 h. In series [2] (sc), this molecule came in with an SC bioavailability of 51% and an SC half-life of 11 h.

B2: FGF21ΔH-Knull-P2: FGF21 lysine-null mutant, SEQ ID NO:22 (protein, listed as Homo sapiens)
chain: PIPDSSPLLQFGGQVRQRYLYTDDAQQTEAHLEIREDGTVGGAADQSPESLLQLRALRPGVIQILGVRTSRFLCQRPDGALYGSLHFDPEACSFRELLLEDGYNVYQSEAHGLPLHLPGNRSPHRDPAPRGPARFLPLPGLPPAPLEPPGILAPQPPDVGSSDPLSMVGPSQGRSPSYAS
In the case of B2, the EC50 in series [1] (setting [5]) worked out at 1.2 nM.

B3: FGF21ΔH-Knull-S181K: FGF21 lysine-null mutant with S181K, SEQ ID NO:24 (protein, listed as Homo sapiens)
chain: B2 chain with S180K
For the molecule B3, the EC50 in series [1] (setting [5]) stood at 7.5 nM.

B4: L4-FGF21ΔH-A129C: Linker-4 conjugated to FGF21ΔH-A129C protein (Table 4; Table 5 row L4) (conjugate, UniProt Q9NSA1 29-209, looked up, variant H1* A129C)
Fibroblast growth factor 21: B2 chain with R55K, R58K, R68K, R121K, A128C, P145L, L146P
modifications: Linker-4 attached
Take B4: the “1 linker (protein+linker)” value in series [3] (0 hrs) was 46%; in series [3] (24 hrs), 46%; in series [3] (72 hrs), 42%; in series [3] (168 hrs), 41%; in series [3] (336 hrs), 41%. In addition, the “+(1) H2O” value is reported as 28% in series [3] (0 hrs); 27% in series [3] (24 hrs); 30% in series [3] (72 hrs); 32% in series [3] (168 hrs); 31% in series [3] (336 hrs). Besides, the “+(2) H2O” value is given as 6% in series [3] (0 hrs); 7% in series [3] (24 hrs); 7% in series [3] (72 hrs); 6% in series [3] (168 hrs); 6% in series [3] (336 hrs (2 weeks)). For the same molecule, the “0 linker (unconjugated protein)” value in series [3] (setting [6]) came to 20%; in series [3] (24 hrs), 20%; in series [3] (72 hrs), 21%; in series [3] (168 hrs) it was 21%; in series [3] (336 hrs), 22%.

B5: L2-FGF21ΔH-A129C: Linker-2 conjugated to FGF21ΔH-A129C protein (Table 4; Table 5 row L2) (conjugate, UniProt Q9NSA1 29-209, looked up, variant H1* A129C)
Fibroblast growth factor 21: B2 chain with R55K, R58K, R68K, R121K, A128C, P145L, L146P
modifications: Linker-2 attached
Consider B5, for which the “1 linker (protein+linker)” value was found to be 45% in series [3] (0 hrs); 43% in series [3] (24 hrs); 37% in series [3] (72 hrs); 40% in series [3] (168 hrs); 38% in series [3] (336 hrs). The “+(1) H2O” value came to 27% in series [3] (0 hrs); 26% in series [3] (24 hrs); 32% in series [3] (72 hrs); 29% in series [3] (168 hrs); 28% in series [3] (336 hrs). The “+(2) H2O” value in series [3] (0 hrs) is reported as 6%; in series [3] (24 hrs), 8%; in series [3] (72 hrs) it was 8%; in series [3] (168 hrs) it was 7%; in series [3] (336 hrs (2 weeks)), 8%. Moreover, the “0 linker (unconjugated protein)” value in series [3] (setting [6]) is given as 22%; in series [3] (24 hrs), 23%; in series [3] (72 hrs) it was 24%; in series [3] (168 hrs), 24%; in series [3] (336 hrs), 26%.

B6: FGF21ΔH-L86C: FGF21 cysteine mutant, SEQ ID NO:14 (protein, listed as Homo sapiens)
chain: B2 chain with R55K, R58K, R68K, L85C, R121K
In the case of B6, in series [4], the concentration giving a half-maximal response (EC50) amounted to 62 nM.

B7: FGF21ΔH-H125C: FGF21 cysteine mutant, SEQ ID NO:6 (protein, listed as Homo sapiens)
chain: B2 chain with R55K, R58K, R68K, R121K, H124C, P145L, L146P
Regarding B7, the half-maximal effective concentration (EC50) in series [1] (setting [5]) is 1.2 nM.

B8: L1-FGF21ΔH-A129C: Linker-1 conjugated to FGF21ΔH-A129C protein (Table 4; Table 5 row L1) (conjugate, UniProt Q9NSA1 29-209, looked up, variant H1* A129C)
Fibroblast growth factor 21: B2 chain with R55K, R58K, R68K, R121K, A128C, P145L, L146P
modifications: Linker-1 attached
Regarding B8, the “1 linker (protein+linker)” value in series [3] (0 hrs) stood at 49%; in series [3] (24 hrs) it was 41%; in series [3] (72 hrs), 40%; in series [3] (168 hrs) it was 33%; in series [3] (336 hrs), 28%. Further, the “+(1) H2O” value in series [3] (0 hrs) is 30%; in series [3] (24 hrs) it was 34%; in series [3] (72 hrs), 35%; in series [3] (168 hrs) it was 40%; in series [3] (336 hrs), 41%. For the same molecule, the “+(2) H2O” value in series [3] (0 hrs) is 8%; in series [3] (24 hrs), 11%; in series [3] (72 hrs), 11%; in series [3] (168 hrs), 18%; in series [3] (336 hrs (2 weeks)), 18%. Moreover, the “0 linker (unconjugated protein)” value in series [3] (setting [6]) is on record as 13%; in series [3] (24 hrs) it was 14%; in series [3] (72 hrs), 14%; in series [3] (168 hrs) it was 10%; in series [3] (336 hrs) it was 12%.

B9: FGF21ΔH-A129C: FGF21 cysteine mutant, SEQ ID NO:9 (protein, listed as Homo sapiens)
chain: B2 chain with R55K, R58K, R68K, R121K, A128C, P145L, L146P
On to B9, for which the concentration for a half-maximal effect (EC50) is 16 nM in series [1] (3T3-L1 adipocytes, Taqman quantitative real-time PCR, read-out: Glut1 RNA expression EC50) and 1.4 nM in series [1] (setting [5]). In addition, in series [1], the “Glut1 induction in 3T3-L1 adipocytes” value is “dose-dependent Glut1 induction”.

B10: L3-FGF21ΔH-A129C: Linker-3 conjugated to FGF21ΔH-A129C protein (Table 4; Table 5 row L3) (conjugate, UniProt Q9NSA1 29-209, looked up, variant H1* A129C)
Fibroblast growth factor 21: B2 chain with R55K, R58K, R68K, R121K, A128C, P145L, L146P
modifications: Linker-3 attached
As to B10, the “1 linker (protein+linker)” value is listed as 45% in series [3] (0 hrs); 47% in series [3] (24 hrs); 43% in series [3] (72 hrs); 43% in series [3] (168 hrs); 43% in series [3] (336 hrs). Besides, the “+(1) H2O” value in series [3] (0 hrs) is 30%; in series [3] (24 hrs) it was 27%; in series [3] (72 hrs), 30%; in series [3] (168 hrs), 29%; in series [3] (336 hrs), 29%. The “+(2) H2O” value in series [3] (0 hrs) was determined as 6%; in series [3] (24 hrs), 8%; in series [3] (72 hrs), 8%; in series [3] (168 hrs), 8%; in series [3] (336 hrs (2 weeks)), 8%. Besides, the “0 linker (unconjugated protein)” value in series [3] (setting [6]) came to 19%; in series [3] (24 hrs), 18%; in series [3] (72 hrs) it was 19%; in series [3] (168 hrs), 19%; in series [3] (336 hrs), 20%.
